In general, stoichiometry N refers to the number of molecules, sites or subunits per partner or assembly.

Data set [1] concerns the molecule itself. Nature of the data set: cryo-EM structure; Eag1 Δ3–13 and CaM co-expressed and co-purified; 20 mM Tris pH 8, 300 mM KCl, 1 mM CaCl2, 0.05% digitonin; 5 mg/ml; C4 symmetry imposed; two conformations.
For data set [2], the target named is T1, Calmodulin (human, UniProt P0DP24 1-149).
T1 construct: Calmodulin, Homo sapiens, Uniprot P0DP24; Calcium (1 mM CaCl2) was present throughout; also called CaM; source: HEK293S GnTI-, infected with BacMam baculovirus together with Eag1 Δ3–13 baculovirus, co-purified with Eag1 Δ3–13
The data set is described as above. The note with it: both partners purified.

B1: Eag1 Δ3–13 (rat Kv10.1/Eag1/Kcnh1, residues 3–13 deleted, C-terminal unstructured region 773-886 removed) (natural protein, UniProt Q63472 1-962, looked up)
chain: MTQNTFLENIVRRSNDTNFVLGNAQIVDWPIVYSNDGFCKLSGYHRAEVMQKSSACSFMYGELTDKDTVEKVRQTFENYEMNSFEILMYKKNRTPVWFFVKIAPIRNEQDKVVLFLCTFSDITAFKQPIEDDSCKGWGKFARLTRALTSSRGVLQQLAPSVQKGENVHKHSRLAEVLQLGSDILPQYKQEAPKTPPHIILHYCVFKTTWDWIILILTFYTAILVPYNVSFKTRQNNVAWLVVDSIVDVIFLVDIVLNFHTTFVGPAGEVISDPKLIRMNYLKTWFVIDLLSCLPYDVINAFENVDEGISSLFSSLKVVRLLRLGRVARKLDHYIEYGAAVLVLLVCVFGLAAHWMACIWYSIGDYEIFDEDTKTIRNNSWLYQLALDIGTPYQFNGSGSGKWEGGPSKNSVYISSLYFTMTSLTSVGFGNIAPSTDIEKIFAVAIMMIGSLLYATIFGNVTTIFQQMYANTNRYHEMLNSVRDFLKLYQVPKGLSERVMDYIVSTWSMSRGIDTEKVLQICPKDMRADICVHLNRKVFKEHPAFRLASDGCLRALAMEFQTVHCAPGDLIYHAGESVDSLCFVVSGSLEVIQDDEVVAILGKGDVFGDVFWKEATLAQSCANVRALTYCDLHVIKRDALQKVLEFYTAFSHSFSRNLILTYNLRKRIVFRKISDVKREEEERMKRKNEAPLILPPDHPVRRLFQRFRQQKEARLAAERGGRDLDDLDVEKGNALTDHTSANHSLVKASVVTVRESPATPVSFYPIPEQTLQATVLEVKHELKEDIKALNAKMTSIEKQLSEILRILMSRGSSQSPQDTCEVSRPQSPESDRDIFGAS
notes: Kv10.1/Eag1/Kcnh1, Rattus norvegicus, Uniprot Q63472; whole channel with residues 3-13 of the PAS loop deleted and the C-terminal unstructured region 773-886 removed; The GFP tag was removed with PreScission protease; also called calmodulin insensitive mutant; not shown: GFP, C-terminal, cleaved; His6, C-terminal, cleaved
For the molecule B1, in data set [1], the “stoichiometry N” value was 4. Besides, in data set [2], the binding result is “binds”.

The values are drawn from article PMC6731095, “Regulation of Eag1 gating by its intracellular domains” (eLife, 2019).
